Assay results: patent publication US20190077860A1 (EISAI R AND D MANAGEMENT, published 2019)

B1: humanized antibody No. 76 (antibody, human IgG1, kappa)
heavy: QVQLVQSGSELKKPGASVKVSCKASGYTFTDYSMHWVRQAPGQGLKWMGWINTETGEPTYAQGFTGRFVFSLDTSVSTAYLQISSLKAEDTAVYYCARIPLYYYGSRYWYFDVWGQGTTVTVSSASTKGPSVFPLAPSSKSTSGGTAALGCLVKDYFPEPVTVSWNSGALTSGVHTFPAVLQSSGLYSLSSVVTVPSSSLGTQTYICNVNHKPSNTKVDKRVEPKSCDKTHTCPPCPAPPAAAPSVFLFPPKPKDTLMISRTPEVTCVVVDVSHEDPEVQFNWYVDGVEVHNAKTKPREEQFNSTFRVVSVLTVVHQDWLNGKEYKCKVSNKGLPAPIEKTISKTKGQPREPQVYTLPPSREEMTKNQVSLTCLVKGFYPSDIAVEWESNGQPENNYKTTPPMLDSDGSFFLYSKLTVDKSRWQQGNVFSCSVMHEALHNHYTQKSLSLSPG
light: DIQMTQSPSSLSASVGDRVTITCRASENIYRNLAWYQQKPGKAPKLLVYAATNLADGVPSRFSGSGSGTDYTLTISSLQPEDFATYYCQHFWGTPWTFGQGTKVEIKRTVAAPSVFIFPPSDEQLKSGTASVVCLLNNFYPREAKVQWKVDNALQSGNSQESVTEQDSKDSTYSLSSTLTLSKADYEKHKVYACEVTHQGLSSPVTKSFNRGEC
notes: human Ig kappa; also called L1-4/HA2
B2: humanized antibody No. 78 (antibody, human IgG1, kappa)
heavy: QVQLVQSGSELKKPGASVKVSCKASGYTFTDYSMHWVRQAPGQGLKWMGWINTETGEPTYADDFKGRFVFSLDTSVSTAYLQISSLKAEDTAVYYCARIPLYYYGSRYWYFDVWGQGTTVTVSSASTKGPSVFPLAPSSKSTSGGTAALGCLVKDYFPEPVTVSWNSGALTSGVHTFPAVLQSSGLYSLSSVVTVPSSSLGTQTYICNVNHKPSNTKVDKRVEPKSCDKTHTCPPCPAPPAAAPSVFLFPPKPKDTLMISRTPEVTCVVVDVSHEDPEVQFNWYVDGVEVHNAKTKPREEQFNSTFRVVSVLTVVHQDWLNGKEYKCKVSNKGLPAPIEKTISKTKGQPREPQVYTLPPSREEMTKNQVSLTCLVKGFYPSDIAVEWESNGQPENNYKTTPPMLDSDGSFFLYSKLTVDKSRWQQGNVFSCSVMHEALHNHYTQKSLSLSPG
light: DIQMTQSPSSLSASVGDRVTITCRASENIYRNLAWYQQKPGKAPKLLVYAATNLADGVPSRFSGSGSGTDYTLTISSLQPEDFATYYCQHFWGTPWTFGQGTKVEIKRTVAAPSVFIFPPSDEQLKSGTASVVCLLNNFYPREAKVQWKVDNALQSGNSQESVTEQDSKDSTYSLSSTLTLSKADYEKHKVYACEVTHQGLSSPVTKSFNRGEC
notes: human Ig kappa; also called L1-4/HK2
B3: humanized antibody No. 77 (antibody, human IgG1, kappa)
heavy: QVQLVQSGSELKKPGASVKVSCKASGYTFTDYSMHWVRQAPGQGLEWMGWINTETGEPTYADDFKGRFVFSLDTSVSTAYLQISSLKAEDTAVYYCARIPLYYYGSRYWYFDVWGQGTTVTVSSASTKGPSVFPLAPSSKSTSGGTAALGCLVKDYFPEPVTVSWNSGALTSGVHTFPAVLQSSGLYSLSSVVTVPSSSLGTQTYICNVNHKPSNTKVDKRVEPKSCDKTHTCPPCPAPPAAAPSVFLFPPKPKDTLMISRTPEVTCVVVDVSHEDPEVQFNWYVDGVEVHNAKTKPREEQFNSTFRVVSVLTVVHQDWLNGKEYKCKVSNKGLPAPIEKTISKTKGQPREPQVYTLPPSREEMTKNQVSLTCLVKGFYPSDIAVEWESNGQPENNYKTTPPMLDSDGSFFLYSKLTVDKSRWQQGNVFSCSVMHEALHNHYTQKSLSLSPG
light: DIQMTQSPSSLSASVGDRVTITCRASENIYRNLAWYQQKPGKAPKLLVYAATNLADGVPSRFSGSGSGTDYTLTISSLQPEDFATYYCQHFWGTPWTFGQGTKVEIKRTVAAPSVFIFPPSDEQLKSGTASVVCLLNNFYPREAKVQWKVDNALQSGNSQESVTEQDSKDSTYSLSSTLTLSKADYEKHKVYACEVTHQGLSSPVTKSFNRGEC
notes: human Ig kappa; also called L1-4/HK1
B4: humanized antibody No. 67 (antibody, human IgG1, kappa)
heavy: QIQLVQSGSELKKPGASVKVSCKASGYTFTDYSMHWVRQAPGQGLKWMGWINTETGEPTYAQGFTGRFVFSLDTSVSTAYLQISSLKAEDTAVYYCARIPLYYYGSRYWYFDVWGQGTTVTVSSASTKGPSVFPLAPSSKSTSGGTAALGCLVKDYFPEPVTVSWNSGALTSGVHTFPAVLQSSGLYSLSSVVTVPSSSLGTQTYICNVNHKPSNTKVDKRVEPKSCDKTHTCPPCPAPPAAAPSVFLFPPKPKDTLMISRTPEVTCVVVDVSHEDPEVQFNWYVDGVEVHNAKTKPREEQFNSTFRVVSVLTVVHQDWLNGKEYKCKVSNKGLPAPIEKTISKTKGQPREPQVYTLPPSREEMTKNQVSLTCLVKGFYPSDIAVEWESNGQPENNYKTTPPMLDSDGSFFLYSKLTVDKSRWQQGNVFSCSVMHEALHNHYTQKSLSLSPG
light: DIQMTQSPSSLSASVGDRVTITCRASENIYRNLAWYQQKPGKAPKLLVYAATNLADGVPSRFSGSGSGTDYTLTISSLQPEDFATYYCQHFWGTPWTFGQGTKVEIKRTVAAPSVFIFPPSDEQLKSGTASVVCLLNNFYPREAKVQWKVDNALQSGNSQESVTEQDSKDSTYSLSSTLTLSKADYEKHKVYACEVTHQGLSSPVTKSFNRGEC
notes: human Ig kappa; also called L1-4/HA4
B5: humanized antibody No. 81 (antibody, human IgG1, kappa)
heavy: QVQLVQSGSELKKPGASVKVSCKASGYTFTDYSMHWVRQAPGQGLEWMGWINTETGEPTYAQGFTGRFVFSLDTSVSTAYLQISSLKAEDTAVYYCARIPLYYYGSRYWYFDVWGQGTTVTVSSASTKGPSVFPLAPSSKSTSGGTAALGCLVKDYFPEPVTVSWNSGALTSGVHTFPAVLQSSGLYSLSSVVTVPSSSLGTQTYICNVNHKPSNTKVDKRVEPKSCDKTHTCPPCPAPPAAAPSVFLFPPKPKDTLMISRTPEVTCVVVDVSHEDPEVQFNWYVDGVEVHNAKTKPREEQFNSTFRVVSVLTVVHQDWLNGKEYKCKVSNKGLPAPIEKTISKTKGQPREPQVYTLPPSREEMTKNQVSLTCLVKGFYPSDIAVEWESNGQPENNYKTTPPMLDSDGSFFLYSKLTVDKSRWQQGNVFSCSVMHEALHNHYTQKSLSLSPG
light: DIQMTQSPSSLSASVGDRVTITCRASENIYRNLAWYQQKPGKAPKLLLYAATNLADGVPSRFSGSGSGTDYTLTISSLQSEDFATYYCQHFWGTPWTFGQGTKVEIKRTVAAPSVFIFPPSDEQLKSGTASVVCLLNNFYPREAKVQWKVDNALQSGNSQESVTEQDSKDSTYSLSSTLTLSKADYEKHKVYACEVTHQGLSSPVTKSFNRGEC
notes: human Ig kappa; also called L1-5/HA1
B6: humanized antibody No. 69 (antibody, human IgG1, kappa)
heavy: QIQLVQSGSELKKPGASVKVSCKASGYTFTDYSMHWVRQAPGQGLKWMGWINTETGEPTYADDFKGRFVFSLDTSVSTAYLQISSLKAEDTAVYYCARIPLYYYGSRYWYFDVWGQGTTVTVSSASTKGPSVFPLAPSSKSTSGGTAALGCLVKDYFPEPVTVSWNSGALTSGVHTFPAVLQSSGLYSLSSVVTVPSSSLGTQTYICNVNHKPSNTKVDKRVEPKSCDKTHTCPPCPAPPAAAPSVFLFPPKPKDTLMISRTPEVTCVVVDVSHEDPEVQFNWYVDGVEVHNAKTKPREEQFNSTFRVVSVLTVVHQDWLNGKEYKCKVSNKGLPAPIEKTISKTKGQPREPQVYTLPPSREEMTKNQVSLTCLVKGFYPSDIAVEWESNGQPENNYKTTPPMLDSDGSFFLYSKLTVDKSRWQQGNVFSCSVMHEALHNHYTQKSLSLSPG
light: DIQMTQSPSSLSASVGDRVTITCRASENIYRNLAWYQQKPGKAPKLLVYAATNLADGVPSRFSGSGSGTDYTLTISSLQPEDFATYYCQHFWGTPWTFGQGTKVEIKRTVAAPSVFIFPPSDEQLKSGTASVVCLLNNFYPREAKVQWKVDNALQSGNSQESVTEQDSKDSTYSLSSTLTLSKADYEKHKVYACEVTHQGLSSPVTKSFNRGEC
notes: human Ig kappa; also called L1-4/HK4
B7: humanized antibody No. 75 (antibody, human IgG1, kappa)
heavy: QVQLVQSGSELKKPGASVKVSCKASGYTFTDYSMHWVRQAPGQGLEWMGWINTETGEPTYAQGFTGRFVFSLDTSVSTAYLQISSLKAEDTAVYYCARIPLYYYGSRYWYFDVWGQGTTVTVSSASTKGPSVFPLAPSSKSTSGGTAALGCLVKDYFPEPVTVSWNSGALTSGVHTFPAVLQSSGLYSLSSVVTVPSSSLGTQTYICNVNHKPSNTKVDKRVEPKSCDKTHTCPPCPAPPAAAPSVFLFPPKPKDTLMISRTPEVTCVVVDVSHEDPEVQFNWYVDGVEVHNAKTKPREEQFNSTFRVVSVLTVVHQDWLNGKEYKCKVSNKGLPAPIEKTISKTKGQPREPQVYTLPPSREEMTKNQVSLTCLVKGFYPSDIAVEWESNGQPENNYKTTPPMLDSDGSFFLYSKLTVDKSRWQQGNVFSCSVMHEALHNHYTQKSLSLSPG
light: DIQMTQSPSSLSASVGDRVTITCRASENIYRNLAWYQQKPGKAPKLLVYAATNLADGVPSRFSGSGSGTDYTLTISSLQPEDFATYYCQHFWGTPWTFGQGTKVEIKRTVAAPSVFIFPPSDEQLKSGTASVVCLLNNFYPREAKVQWKVDNALQSGNSQESVTEQDSKDSTYSLSSTLTLSKADYEKHKVYACEVTHQGLSSPVTKSFNRGEC
notes: constant region: human IgG1 CH1 and hinge, human IgG2 CH2 and CH3 with V234A, G237A, no C-terminal Lys; human Ig kappa; also called L1-4/HA1

Tests used:
[1] = biological target: T1, human EphA10 extracellular region-SEAP-His protein (human, UniProt Q5JZY3 34-565); experiment: ELISA
T1 construct: extracellular domain; also called hEphA10-SEAP-His
T1 sequence (looked up): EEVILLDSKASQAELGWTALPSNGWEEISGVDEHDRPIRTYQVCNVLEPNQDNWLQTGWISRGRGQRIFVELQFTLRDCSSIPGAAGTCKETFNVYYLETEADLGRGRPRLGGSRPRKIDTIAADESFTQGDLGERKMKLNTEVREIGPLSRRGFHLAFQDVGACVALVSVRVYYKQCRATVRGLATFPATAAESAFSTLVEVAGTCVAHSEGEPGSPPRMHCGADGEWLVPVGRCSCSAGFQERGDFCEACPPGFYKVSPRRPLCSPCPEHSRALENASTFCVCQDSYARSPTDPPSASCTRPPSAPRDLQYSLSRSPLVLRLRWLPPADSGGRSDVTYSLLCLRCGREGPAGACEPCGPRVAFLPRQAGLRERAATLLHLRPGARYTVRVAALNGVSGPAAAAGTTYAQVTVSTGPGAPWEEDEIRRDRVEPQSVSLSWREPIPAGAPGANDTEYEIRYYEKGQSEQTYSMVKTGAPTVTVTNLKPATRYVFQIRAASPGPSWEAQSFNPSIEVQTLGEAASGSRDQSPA

[2] = biological target: T2, human EphB6 extracellular region-SEAP-His protein (human, UniProt O15197 32-594); experiment: ELISA
T2 construct: extracellular domain; also called hEphB6-SEAP-His
T2 sequence (looked up): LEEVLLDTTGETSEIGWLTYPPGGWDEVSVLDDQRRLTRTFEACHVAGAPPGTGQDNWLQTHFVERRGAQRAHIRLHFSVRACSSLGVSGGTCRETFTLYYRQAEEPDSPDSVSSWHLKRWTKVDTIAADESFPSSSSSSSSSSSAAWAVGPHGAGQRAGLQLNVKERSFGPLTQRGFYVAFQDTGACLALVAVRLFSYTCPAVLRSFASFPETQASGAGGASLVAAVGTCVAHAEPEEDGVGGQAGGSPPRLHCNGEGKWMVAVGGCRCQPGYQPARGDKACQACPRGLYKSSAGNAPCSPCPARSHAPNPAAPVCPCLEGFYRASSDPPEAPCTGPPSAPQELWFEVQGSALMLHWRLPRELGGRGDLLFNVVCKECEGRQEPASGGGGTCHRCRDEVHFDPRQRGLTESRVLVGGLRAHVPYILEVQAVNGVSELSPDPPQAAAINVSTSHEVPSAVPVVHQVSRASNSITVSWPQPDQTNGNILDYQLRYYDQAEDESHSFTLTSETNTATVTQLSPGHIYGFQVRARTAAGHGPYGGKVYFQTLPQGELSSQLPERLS

Binder | A450 as % of hEphA4-SEAP-His [1] | A450 as % of hEphA4-SEAP-His [2]
B1 | 4.7% | 5.2%
B2 | 5.2% | 5.2%
B3 | 4.5% | 4.5%
B4 | 4.6% | 4.7%
B5 | 4.8% | 5%
B6 | 5.4% | 5.6%
B7 | 4.4% | 4.7%
